Reference: patent EP4810052A2 (Gubra A/S, dated 2026)
Like-named read-outs stand apart in the source and are kept apart here. Starred links: 1 amine or outer side, 2 acyl side, 3 side chain; linkers in the order of their positions; H or OH if unused. Non-standard residues stand in square brackets, D forms with d. Groups on a side chain read outwards from the residue. No end group written: not given here. *: point of attachment. C20 diacid = O=C(O)CCCCCCCCCCCCCCCCCCC(=O)*; γGlu = O=C(O)[C@H](CCC(=O)[*:2])N[*:1]; NMeI = CC[C@H](C)[C@H](NC)C(=O)O; Nle = CCCC[C@H](N)C(=O)O; lip = not defined here; AEEA = NCCOCCOCC(=O)O; Aib = CC(C)(N)C(=O)O

T1: human corticotropin-releasing hormone receptor 1 (human, UniProt P34998 24-415)
T1 sequence (looked up): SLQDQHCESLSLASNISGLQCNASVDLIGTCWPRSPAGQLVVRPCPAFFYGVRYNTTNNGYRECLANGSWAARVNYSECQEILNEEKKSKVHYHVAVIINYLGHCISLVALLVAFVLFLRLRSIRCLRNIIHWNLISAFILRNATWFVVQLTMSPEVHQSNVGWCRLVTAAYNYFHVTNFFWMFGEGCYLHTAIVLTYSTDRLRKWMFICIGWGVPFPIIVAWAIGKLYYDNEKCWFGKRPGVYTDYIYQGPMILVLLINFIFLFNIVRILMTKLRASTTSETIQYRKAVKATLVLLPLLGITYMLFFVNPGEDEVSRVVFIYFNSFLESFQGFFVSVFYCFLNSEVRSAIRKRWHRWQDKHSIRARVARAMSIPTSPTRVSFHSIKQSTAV

T2: rat CRH receptor 1 (rat, UniProt P35353 24-415)
T2 sequence (looked up): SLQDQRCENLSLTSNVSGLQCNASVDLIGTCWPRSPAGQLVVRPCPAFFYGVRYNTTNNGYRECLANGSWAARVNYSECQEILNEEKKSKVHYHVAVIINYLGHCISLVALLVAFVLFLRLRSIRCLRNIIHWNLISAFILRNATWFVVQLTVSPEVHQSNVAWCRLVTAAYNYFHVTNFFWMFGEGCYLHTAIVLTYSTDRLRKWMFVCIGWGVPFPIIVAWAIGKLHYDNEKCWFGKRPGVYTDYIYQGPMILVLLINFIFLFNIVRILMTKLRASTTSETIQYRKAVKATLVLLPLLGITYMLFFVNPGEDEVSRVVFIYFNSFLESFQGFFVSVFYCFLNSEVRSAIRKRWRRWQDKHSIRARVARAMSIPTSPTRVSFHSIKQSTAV

T3: mouse CRH receptor 1 (mouse, UniProt P35347 24-415)
T3 sequence (looked up): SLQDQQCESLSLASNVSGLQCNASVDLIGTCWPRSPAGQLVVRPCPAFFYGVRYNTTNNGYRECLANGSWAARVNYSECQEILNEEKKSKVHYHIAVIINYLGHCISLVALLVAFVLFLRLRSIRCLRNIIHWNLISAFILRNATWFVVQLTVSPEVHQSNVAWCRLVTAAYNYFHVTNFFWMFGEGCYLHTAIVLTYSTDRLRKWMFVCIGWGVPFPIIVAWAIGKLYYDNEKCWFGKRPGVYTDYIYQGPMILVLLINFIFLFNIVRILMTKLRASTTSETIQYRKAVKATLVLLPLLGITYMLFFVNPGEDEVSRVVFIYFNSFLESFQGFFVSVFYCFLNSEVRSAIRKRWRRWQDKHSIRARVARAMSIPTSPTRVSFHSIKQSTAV


Tests used:
Assay in all cases: cell-based or functional assay
[1] = target: T1, human corticotropin-releasing hormone …
porcine CRH receptor 1 = porcine CRH receptor 1 (pig)
rat CRH receptor 1 = target: T2, rat CRH receptor 1
[2] = target: T1, human corticotropin-releasing hormone …; remark: listed apart in the source
mouse CRH receptor 1 = target: T3, mouse CRH receptor 1
[3] = target: T1, human corticotropin-releasing hormone …; remark: listed apart in the source
[4] = target: T1, human corticotropin-releasing hormone …; remark: listed apart in the source

Row | hCRHR1 EC50 (nM); HTRF cAMP assay, CHO-K1 cells stably expressing hCRHR1 [1] | Transient cell system EC50 (nM), pCRHR1; cAMP assay, transiently transfected CHO-K1 cells (porcine CRH receptor 1) | Transient cell system EC50 (nM), rCRHR1; cAMP assay, transiently transfected CHO-K1 cells (rat CRH receptor 1) | Stable EC50 (nM), hCRHR1; cAMP assay, stable CHO-K1 cells [2] | Transient cell system EC50 (nM), hCRHR1; cAMP assay, transiently transfected CHO-K1 cells [2] | Transient cell system EC50 (nM), mCRHR1; cAMP assay, transiently transfected CHO-K1 cells (mouse CRH receptor 1) | hCRHR1 EC50 (nM); HTRF cAMP assay, CHO-K1 cells stably expressing hCRHR1 [3] | hCRHR1 EC50 (nM); HTRF cAMP assay, CHO-K1 cells stably expressing hCRHR1 [4] | Binder
1 | > 5000 nM | > 5000 nM | > 1000 nM | > 5000 nM | > 5000 nM | 323 nM | – | – | PVLSLDVPIGLLQILLSQARARAAREQAK[Aib]NAEI[Nle]AEV-NH2 (not fully specified (residue 29); printed as PVLSLDVPIGLLQILLSQARARAAREQA[K*][Aib]NAEI[Nle]AEV(NH_2); also: lipid and spacer on Lys29 not given here) [SEQ ID NO: 238, PVLSLDVPIGLLQILLSQARARAAREQA[K*][Aib]NAEI[Nle]AEV(NH2)]
2 | > 5000 nM | > 1000 nM | 175 nM | > 5000 nM | 826 nM | 50 nM | – | – | [NMeI]VLSLDVPIGLLQILLSQARARAAREQAK([AEEA-AEEA-γGlu-γGlu-C20 diacid])TN[Aib]EI[Nle]AEV-NH2 (not fully specified; printed as [MeI]VLSLDVPIGLLQILLSQARARAAREQA[K*]TN[Aib]EI[Nle]AEV(NH_2)) [SEQ ID NO: 215, [MeI]VLSLDVPIGLLQILLSQARARAAREQA[K*]TN[Aib]EI[Nle]AEV(NH2)]
3 | – | > 5000 nM | 275 nM | > 5000 nM | > 1000 nM | 71 nM | > 5000 nM | > 5000 nM | [NMeI]VLSLDVPIGLLQILLEQARARAAREQATKNAEILAEV-NH2 (not fully specified (residue 30); printed as [MeI]VLSLDVPIGLLQILLEQARARAAREQAT[K*]NAEILAEV(NH_2); also: lipid and spacer on Lys30 not given here) [SEQ ID NO: 6, [MeI]VLSLDVPIGLLQILLEQARARAAREQAT[K*]NAEILAEV(NH2)]
4 | – | > 5000 nM | 256 nM | > 5000 nM | > 1000 nM | 76 nM | > 5000 nM | – | [NMeI]VLSLDVPIGLLQILLEQARARAAREQAK(lip)TN[Aib]EILAEV-NH2 (reading uncertain; also: printed as [MeI]VLSLDVPIGLLQILLEQARARAAREQA[K*]TN[Aib]EILAEV(NH2)) [SEQ ID NO: 16, [MeI]VLSLDVPIGLLQILLEQARARAAREQA[K*]TN[Aib]EILAEV(NH2)]
5 | > 5000 nM | > 5000 nM | 163 nM | > 5000 nM | > 1000 nM | 44 nM | > 5000 nM | > 5000 nM | IVLSLDVPIGLLQILLEQARARAAREQAK(lip)TNAEILAEV-NH2 (not fully specified; reading uncertain) [SEQ ID NO: 3 (Lipidated UCN2 with X^36 = E; X^40 = E) (reference 1)]
